Source: patent US20260217797A1 (Takeda / Millennium, published 2026)

How the values were obtained:
SARS-CoV-2 RBD-mFc = SARS-CoV-2 RBD-mFc (SARS-CoV-2, UniProt P0DTC2 319-541); test: Octet BLI, IgG, avid
[1] = biological target: SARS-CoV-2 Alpha (B.1.1.7) spike protein (on reporter virus particles) (SARS-CoV-2, UniProt P0DTC2 14-1273); test: cell-based or functional assay
[2] = biological target: SARS-CoV-2 Beta (B.1.351) spike protein (on reporter virus particles) (SARS-CoV-2, UniProt P0DTC2 14-1273); test: cell-based or functional assay
[3] = biological target: SARS-CoV-2 Omicron (B.1.529) spike protein (on reporter virus particles) (SARS-CoV-2, UniProt P0DTC2 14-1273); test: cell-based or functional assay
[4] = biological target: SARS-CoV-2 B.1.1.7 N501Y (Alpha) RBD (SARS-CoV-2, UniProt P0DTC2 319-541); test: Octet BLI single point, monovalent
[5] = biological target: SARS-CoV-2 B.1.351 (Beta) RBD (SARS-CoV-2, UniProt P0DTC2 319-541); test: Octet BLI single point, monovalent
[6] = biological target: SARS-CoV-2 P.1 Spike (Gamma) (SARS-CoV-2, UniProt P0DTC2 16-1213); test: Octet BLI single point, monovalent
[7] = biological target: SARS-CoV-2 B.1.617.2 (Delta) RBD (SARS-CoV-2, UniProt P0DTC2 319-541); test: Octet BLI single point, monovalent
[8] = biological target: SARS-CoV-2 L452R RBD (Epsilon) (SARS-CoV-2, UniProt P0DTC2 319-541); test: Octet BLI single point, monovalent
[9] = biological target: SARS-CoV-2 B.1.617.1 (Kappa) RBD (SARS-CoV-2, UniProt P0DTC2 319-541); test: Octet BLI single point, monovalent

B1: A-18 (antibody, V domains shown)
VH: EVQLLESGGGLVQPGGSLRLSCAASGFTFSRYWMHWVRQAPGKGLVWVSRINSDGSSTTYADSVKGRFTISRDNAKNTLYLQMNSLRAEDTAVYYCARELYYYDSRGAEEGEGWFDPWGQGTLVTVSS
VL: QSVLTQPPSVSGAPGQRVTISCTGISSNIGAGYDVHWYQQLPGTAPKLLIYGNSNRPSGVPDRFSASKSGTSAPLAITGLQAEDEADYYCQSSDRSLSGSVFGTGTKLTVL
Kd (SARS-CoV-2 RBD-mFc): 0.0757 nM
PsV neutralization IC50 [1]: 0.316 µg/mL
PsV neutralization IC90 [1]: 2.04 µg/mL
PsV neutralization IC50 [2]: 0.259 µg/mL
PsV neutralization IC90 [2]: 1.65 µg/mL
PsV IC50, Test 1 [3]: 1.96 nM
PsV IC50, Test 2 [3]: 8.84 nM
Kd [4]: 1.03 nM
Kd [5]: 0.444 nM
Kd [6]: 0.553 nM
Kd [7]: 0.649 nM
Kd [8]: 1.22 nM
Kd [9]: 0.714 nM

B2: A-9 (antibody, V domains shown)
VH: EVQLVESGGGLVKPGRSLRLSCAASGFTFADYAMSWFRQAPGKGLEWVGFIRSKPYGGTTEYAASVKGRFTISRDDSKSIAYLQMNSLKTEDTAVYYCSRDPWYCSGGDCYAVTGSWFDPWGQGTLVTVSS
VL: DIVLTQSPSSLSASVGDRVTITCQASQDIKKYLNWYQQKPGKAPKLLIYDVSNLETGVPSRFSGSGSGTDFTFTISSLQPEDVAIYYCQQYDNLPQTFGQGTKVDIK
Kd (SARS-CoV-2 RBD-mFc): 0.147 nM
PsV neutralization IC50 [1]: 0.019 µg/mL
PsV neutralization IC90 [1]: 0.118 µg/mL
PsV neutralization IC50 [2]: 0.028 µg/mL
PsV neutralization IC90 [2]: 0.184 µg/mL
PsV IC50, Test 1 [3]: 20.8 nM
Kd [4]: 10 nM
Kd [5]: 17.8 nM
Kd [6]: 15 nM
Kd [7]: 12.9 nM
Kd [9]: 6.28 nM
